Laboratory results from publication PMC13038415 (Nature Chemical Biology, 2026).
Changes are numbered by the printed parent chain. Names and notes keep the numbering of the source. Values joined by “and” are separate entries in the source; they are usually repeats but may differ in a detail not shown here. Identical values can stand only once. Like-named read-outs stand apart in the source and are kept apart here.

B1: Pac1 (full-length; yeast homolog of Lis1) (natural protein)
chain: MTNWQQQLPLTDTQKNELDKSVLRYLNWNYKQTVRHEHAQDYESVRHAIVTLSGFLLQESVDRQEFISNNDTSNESMVDIDELLLPKKWNSIVRLQKKIIELEQNTETLVSQIKDLNTQVSELAQFKPTTSNGTSAHNVLKWIPRNLPSCLINVESSVTSVKLHPNLPIVFVATDHGKLYAFDLFNYTIPLASLQSHTKAITSMDVLFTNYTNSSKKNYLVIVTASKDLQIHVFKWVSEECKFQQIRSLLGHEHIVSAVKIWQKNNDVHIASCSRDQTVKIWDFHNGWSLKTFQPHSQWVRSIDVLGDYIISGSHDTTLRLTHWPSGNGLSVGTGHEFPIEKVKFIHFIEDSPEIRFRTPSTDRYKNWGMQYCVSASRDRTIKIWEIPLPTLMAHRAPIPNPTDSNFRCVLTLKGHLSWVRDISIRGQYLFSCADDKSVRCWDLNTGQCLHVWEKLHTGFVNCLDLDVDFDSNVTPRQMMVTGGLDCKSNVFMR
B2: Pac1 site^linker mutant (T403A, S405A, N406A, R320A, V332A) (natural protein)
chain: B1 chain with R320A, V332A, T403A, S405A, N406A

Key:
Assay in all cases: mass photometry
[1] = biological target: T1, full-length dynein complex AAA3^WA (dynein-K2424A) (yeast, UniProt P36022 1-4092; P40960 1-533; Q04949 1-312; Q02647 1-92, K2424A)
[2] = biological target: T1, full-length dynein complex AAA3^WA …; remark: listed apart in the source
[3] = biological target: full-length dynein complex AAA3^WB (E2488Q) (yeast, UniProt P36022 1-4092; P40960 1-533; Q04949 1-312; Q02647 1-92, E2488Q)
[4] = biological target: T1, full-length dynein complex AAA3^WA …; remark: listed apart in the source

T1 sequence (P36022 whole entry K2424A, chain 1 of 4): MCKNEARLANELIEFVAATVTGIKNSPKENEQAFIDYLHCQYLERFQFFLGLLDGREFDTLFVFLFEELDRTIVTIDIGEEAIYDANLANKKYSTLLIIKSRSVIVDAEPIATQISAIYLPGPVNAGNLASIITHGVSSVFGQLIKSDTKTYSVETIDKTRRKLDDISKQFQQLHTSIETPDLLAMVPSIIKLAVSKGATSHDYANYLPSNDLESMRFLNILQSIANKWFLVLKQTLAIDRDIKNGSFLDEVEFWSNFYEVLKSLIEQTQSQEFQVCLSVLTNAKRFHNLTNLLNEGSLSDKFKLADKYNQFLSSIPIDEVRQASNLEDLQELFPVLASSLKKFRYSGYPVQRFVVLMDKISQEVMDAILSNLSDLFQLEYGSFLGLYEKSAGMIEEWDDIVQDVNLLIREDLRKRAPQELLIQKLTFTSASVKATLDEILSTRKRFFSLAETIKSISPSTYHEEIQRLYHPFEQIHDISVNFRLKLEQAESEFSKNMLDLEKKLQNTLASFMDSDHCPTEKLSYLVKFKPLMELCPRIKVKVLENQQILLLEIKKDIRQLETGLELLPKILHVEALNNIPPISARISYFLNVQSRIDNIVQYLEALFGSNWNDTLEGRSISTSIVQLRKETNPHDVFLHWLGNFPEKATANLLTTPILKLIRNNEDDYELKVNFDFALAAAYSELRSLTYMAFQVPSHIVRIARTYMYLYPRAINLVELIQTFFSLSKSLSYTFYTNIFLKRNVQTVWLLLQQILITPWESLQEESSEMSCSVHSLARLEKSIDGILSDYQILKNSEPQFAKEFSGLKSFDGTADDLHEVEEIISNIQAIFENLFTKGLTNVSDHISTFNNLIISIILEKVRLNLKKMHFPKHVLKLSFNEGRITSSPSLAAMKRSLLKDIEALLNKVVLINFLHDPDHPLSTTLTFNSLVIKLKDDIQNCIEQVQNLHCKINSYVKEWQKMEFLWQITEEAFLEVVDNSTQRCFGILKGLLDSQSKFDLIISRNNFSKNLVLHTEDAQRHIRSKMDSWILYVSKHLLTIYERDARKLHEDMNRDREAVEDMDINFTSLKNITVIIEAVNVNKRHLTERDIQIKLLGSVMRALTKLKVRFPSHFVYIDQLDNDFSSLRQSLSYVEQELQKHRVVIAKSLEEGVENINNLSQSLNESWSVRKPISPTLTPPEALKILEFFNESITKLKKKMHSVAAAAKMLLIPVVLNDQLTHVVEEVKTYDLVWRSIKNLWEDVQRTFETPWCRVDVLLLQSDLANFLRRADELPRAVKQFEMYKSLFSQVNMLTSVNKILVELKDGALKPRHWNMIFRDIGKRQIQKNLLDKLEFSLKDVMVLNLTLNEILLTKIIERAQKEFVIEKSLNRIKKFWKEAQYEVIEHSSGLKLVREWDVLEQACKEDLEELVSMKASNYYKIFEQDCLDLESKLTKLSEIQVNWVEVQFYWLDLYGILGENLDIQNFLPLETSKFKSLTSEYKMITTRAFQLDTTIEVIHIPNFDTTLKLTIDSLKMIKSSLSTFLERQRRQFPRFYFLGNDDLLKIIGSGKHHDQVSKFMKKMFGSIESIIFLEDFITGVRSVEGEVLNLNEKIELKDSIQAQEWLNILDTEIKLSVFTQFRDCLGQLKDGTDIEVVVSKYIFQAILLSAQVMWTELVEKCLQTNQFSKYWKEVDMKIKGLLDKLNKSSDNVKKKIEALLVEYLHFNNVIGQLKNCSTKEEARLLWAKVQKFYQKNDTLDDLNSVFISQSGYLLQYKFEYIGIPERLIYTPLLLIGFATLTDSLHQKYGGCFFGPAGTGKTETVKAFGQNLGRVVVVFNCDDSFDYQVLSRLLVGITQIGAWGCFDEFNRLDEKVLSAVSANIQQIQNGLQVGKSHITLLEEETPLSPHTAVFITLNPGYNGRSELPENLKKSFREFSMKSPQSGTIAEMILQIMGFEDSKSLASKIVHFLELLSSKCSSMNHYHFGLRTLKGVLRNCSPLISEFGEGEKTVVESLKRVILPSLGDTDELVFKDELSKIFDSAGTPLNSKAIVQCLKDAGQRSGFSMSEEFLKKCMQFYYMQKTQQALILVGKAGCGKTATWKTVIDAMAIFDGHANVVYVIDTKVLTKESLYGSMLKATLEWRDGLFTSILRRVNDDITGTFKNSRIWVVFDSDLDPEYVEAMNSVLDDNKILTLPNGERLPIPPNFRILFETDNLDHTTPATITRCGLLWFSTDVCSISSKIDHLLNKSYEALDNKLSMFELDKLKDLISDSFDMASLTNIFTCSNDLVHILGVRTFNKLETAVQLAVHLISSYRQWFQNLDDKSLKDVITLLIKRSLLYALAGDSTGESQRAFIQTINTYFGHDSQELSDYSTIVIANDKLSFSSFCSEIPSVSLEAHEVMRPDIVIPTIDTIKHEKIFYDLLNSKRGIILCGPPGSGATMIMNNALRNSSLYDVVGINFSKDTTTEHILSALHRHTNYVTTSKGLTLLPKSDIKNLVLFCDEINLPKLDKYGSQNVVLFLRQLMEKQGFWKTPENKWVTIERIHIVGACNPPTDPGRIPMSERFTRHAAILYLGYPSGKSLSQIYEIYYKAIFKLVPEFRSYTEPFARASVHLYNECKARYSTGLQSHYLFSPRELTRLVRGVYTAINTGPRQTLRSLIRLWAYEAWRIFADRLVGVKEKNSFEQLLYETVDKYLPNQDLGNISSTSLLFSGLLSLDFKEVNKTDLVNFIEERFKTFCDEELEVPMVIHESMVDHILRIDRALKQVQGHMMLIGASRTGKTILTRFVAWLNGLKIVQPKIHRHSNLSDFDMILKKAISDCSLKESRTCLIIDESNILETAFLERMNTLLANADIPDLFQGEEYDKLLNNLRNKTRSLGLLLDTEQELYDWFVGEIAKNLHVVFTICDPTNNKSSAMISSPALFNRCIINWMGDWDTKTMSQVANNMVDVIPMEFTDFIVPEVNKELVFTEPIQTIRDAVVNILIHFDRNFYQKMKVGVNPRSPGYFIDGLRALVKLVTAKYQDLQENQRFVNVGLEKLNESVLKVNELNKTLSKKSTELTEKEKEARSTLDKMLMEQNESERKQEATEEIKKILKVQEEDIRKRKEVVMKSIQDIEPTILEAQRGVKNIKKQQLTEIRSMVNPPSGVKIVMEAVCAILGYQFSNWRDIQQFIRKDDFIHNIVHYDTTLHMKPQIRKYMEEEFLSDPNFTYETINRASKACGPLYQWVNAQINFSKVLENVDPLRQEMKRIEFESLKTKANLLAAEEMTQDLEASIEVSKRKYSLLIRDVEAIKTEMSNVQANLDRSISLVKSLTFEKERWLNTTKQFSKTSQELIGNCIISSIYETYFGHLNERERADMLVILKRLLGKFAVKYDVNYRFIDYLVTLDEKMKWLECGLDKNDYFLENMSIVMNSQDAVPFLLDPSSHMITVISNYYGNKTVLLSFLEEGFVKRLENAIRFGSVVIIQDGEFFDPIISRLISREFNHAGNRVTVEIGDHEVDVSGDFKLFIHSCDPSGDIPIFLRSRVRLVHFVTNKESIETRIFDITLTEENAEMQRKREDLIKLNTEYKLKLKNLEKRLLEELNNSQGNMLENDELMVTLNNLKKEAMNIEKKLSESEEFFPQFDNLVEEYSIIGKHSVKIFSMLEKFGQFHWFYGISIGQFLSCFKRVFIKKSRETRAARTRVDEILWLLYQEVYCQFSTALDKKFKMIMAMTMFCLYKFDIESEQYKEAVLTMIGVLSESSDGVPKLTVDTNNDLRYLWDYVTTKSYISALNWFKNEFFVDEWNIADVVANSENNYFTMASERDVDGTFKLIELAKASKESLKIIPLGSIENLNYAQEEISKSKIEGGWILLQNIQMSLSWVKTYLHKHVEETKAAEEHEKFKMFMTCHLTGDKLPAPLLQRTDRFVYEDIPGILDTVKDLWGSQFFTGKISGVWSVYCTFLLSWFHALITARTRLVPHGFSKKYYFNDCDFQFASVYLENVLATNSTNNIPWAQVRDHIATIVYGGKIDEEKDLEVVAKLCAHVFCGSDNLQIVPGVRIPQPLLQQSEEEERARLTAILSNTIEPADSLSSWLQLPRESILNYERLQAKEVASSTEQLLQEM
T1 sequence (P40960 whole entry, chain 2 of 4): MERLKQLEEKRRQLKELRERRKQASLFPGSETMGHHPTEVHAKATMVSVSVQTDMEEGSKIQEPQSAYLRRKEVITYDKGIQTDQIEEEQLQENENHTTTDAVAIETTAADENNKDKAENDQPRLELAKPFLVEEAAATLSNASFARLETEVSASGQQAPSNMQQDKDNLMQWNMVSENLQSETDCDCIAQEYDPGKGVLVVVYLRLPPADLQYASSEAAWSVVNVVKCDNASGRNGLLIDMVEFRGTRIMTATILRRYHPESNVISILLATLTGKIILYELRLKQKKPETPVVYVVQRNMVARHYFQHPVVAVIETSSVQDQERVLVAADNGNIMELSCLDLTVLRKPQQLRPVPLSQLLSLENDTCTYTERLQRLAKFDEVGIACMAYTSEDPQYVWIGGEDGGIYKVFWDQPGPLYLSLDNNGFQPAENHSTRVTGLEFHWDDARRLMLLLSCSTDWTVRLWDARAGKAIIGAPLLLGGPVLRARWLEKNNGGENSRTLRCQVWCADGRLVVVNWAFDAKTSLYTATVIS
T1 sequence (Q04949 whole entry, chain 3 of 4): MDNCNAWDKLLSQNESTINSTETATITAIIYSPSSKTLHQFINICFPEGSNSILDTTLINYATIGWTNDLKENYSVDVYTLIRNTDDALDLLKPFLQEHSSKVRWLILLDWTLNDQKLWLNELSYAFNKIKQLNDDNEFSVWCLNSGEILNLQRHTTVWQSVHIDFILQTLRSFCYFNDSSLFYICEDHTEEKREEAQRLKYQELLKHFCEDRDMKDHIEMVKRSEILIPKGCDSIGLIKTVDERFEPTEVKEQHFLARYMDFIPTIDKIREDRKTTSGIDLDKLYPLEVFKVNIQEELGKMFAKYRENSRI
T1 sequence (Q02647 whole entry, chain 4 of 4): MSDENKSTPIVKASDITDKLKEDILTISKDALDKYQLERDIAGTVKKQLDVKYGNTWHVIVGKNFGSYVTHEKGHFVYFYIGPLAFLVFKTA

Binder | stoichiometry N [1] | stoichiometry N [2] | stoichiometry N [3] | binding result [4]
B1 | 1 Pac1 dimer per dynein complex | 2 Pac1 dimers per dynein complex | 1 Pac1 dimer per dynein complex and 2 Pac1 dimers per dynein complex | –
B2 | – | – | – | binds
